Laboratory results reported in publication PMC7706287, “Targeting the myeloid checkpoint receptor SIRPα potentiates innate and adaptive immune responses to promote anti-tumor activity” (Journal of Hematology & Oncology, 2020).

Molecular target: T1, Ig-V domain of human SIRPα V1 (crystallography construct) (human, UniProt P78324-1)
T1 construct: Signal regulatory protein α, human, allele v1, IgV domain as crystallised; also called IgV domain of SIRPα v1
Assay: crystal structure; Fab-SIRPα V1 complex at 11.3 mg/mL in 10 mM Tris pH 7.4, 50 mM NaCl; sitting drop, 0.1 M sodium acetate pH 4.0, 0.2 M ammonium sulfate, 18% PEG 4000; 2.27 Angstroms
Details: both partners purified

T1 sequence (P78324 33-147): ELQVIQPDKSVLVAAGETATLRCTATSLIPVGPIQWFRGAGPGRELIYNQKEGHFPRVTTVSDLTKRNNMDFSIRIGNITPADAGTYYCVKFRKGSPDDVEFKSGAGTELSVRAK

B1: hAB21 anti-SIRPα Fab (Fab, V domains shown)
VH: DVQLVESGGGVVRPGESLRLSCEASGFTFSSNAMSWVRQAPGKGLEWVAGISSGSDTYYGDSVKGRLTISRDNSKNILYLQMNSLTAEDTAVYYCARETWNHLFDYWGQGTLVTVSS
VL: ELTQPPSVSVSPGQTARITCSGGSYSSYYYAWYQQKPGQAPVTLIYSDDKRPSNIPERFSGSSSGTTVTLTITGVQAEDEADYYCGGYDQSSYTNPFGGGTKLTVL
notes: Fab heavy chain; Fab light chain (humanized lambda); also called hAB21 Fab; Fab version of the antibody
binding result: binds
